Reference: PMC12416549 (2024)

Target: T1, TNFR1 (Homo sapiens, UniProt P19438)
T1 chain: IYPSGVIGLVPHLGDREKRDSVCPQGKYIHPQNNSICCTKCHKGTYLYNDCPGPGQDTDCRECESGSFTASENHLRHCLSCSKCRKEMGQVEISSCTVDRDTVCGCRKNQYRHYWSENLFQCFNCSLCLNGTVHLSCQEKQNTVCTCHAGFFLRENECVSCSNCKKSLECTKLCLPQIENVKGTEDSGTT
Assay: yeast display SC50

| Binder | apparent Kd (screen) |
| --- | --- |
| D65L (designed binder) MTLQELLREEALRRAEAEAFRYALELLAEKFPEQKEYLLDLAEEIESQIRSLSGVDVEDVRKFLLKEWAWVKELLAEHPAELAEVEAARAARLAELRAEVEAKVAA | 0.956 nM |
| D59A (designed binder) MTLQELLREEALRRAEAEAFRYALELLAEKFPEQKEYLLDLAEEIESQIRSLSGVDVEAVRKFLDKEWAWVKELLAEHPAELAEVEAARAARLAELRAEVEAKVAA | 0.539 nM |
| R92P (designed binder) MTLQELLREEALRRAEAEAFRYALELLAEKFPEQKEYLLDLAEEIESQIRSLSGVDVEDVRKFLDKEWAWVKELLAEHPAELAEVEAARAAPLAELRAEVEAKVAA | 2.25 nM |
| K103M (designed binder) MTLQELLREEALRRAEAEAFRYALELLAEKFPEQKEYLLDLAEEIESQIRSLSGVDVEDVRKFLDKEWAWVKELLAEHPAELAEVEAARAARLAELRAEVEAMVAA | 0.718 nM |
| L7E (designed binder) MTLQELEREEALRRAEAEAFRYALELLAEKFPEQKEYLLDLAEEIESQIRSLSGVDVEDVRKFLDKEWAWVKELLAEHPAELAEVEAARAARLAELRAEVEAKVAA | 15.2 nM |
| V71F (designed binder) MTLQELLREEALRRAEAEAFRYALELLAEKFPEQKEYLLDLAEEIESQIRSLSGVDVEDVRKFLDKEWAWFKELLAEHPAELAEVEAARAARLAELRAEVEAKVAA | 1.69 nM |
| A105Y (designed binder) MTLQELLREEALRRAEAEAFRYALELLAEKFPEQKEYLLDLAEEIESQIRSLSGVDVEDVRKFLDKEWAWVKELLAEHPAELAEVEAARAARLAELRAEVEAKVYA | 0.79 nM |
| K103V (designed binder) MTLQELLREEALRRAEAEAFRYALELLAEKFPEQKEYLLDLAEEIESQIRSLSGVDVEDVRKFLDKEWAWVKELLAEHPAELAEVEAARAARLAELRAEVEAVVAA | 0.593 nM |
| W70A (designed binder) MTLQELLREEALRRAEAEAFRYALELLAEKFPEQKEYLLDLAEEIESQIRSLSGVDVEDVRKFLDKEWAAVKELLAEHPAELAEVEAARAARLAELRAEVEAKVAA | 22.2 nM |
| L96E (designed binder) MTLQELLREEALRRAEAEAFRYALELLAEKFPEQKEYLLDLAEEIESQIRSLSGVDVEDVRKFLDKEWAWVKELLAEHPAELAEVEAARAARLAEERAEVEAKVAA | 0.446 nM |
| R50A (designed binder) MTLQELLREEALRRAEAEAFRYALELLAEKFPEQKEYLLDLAEEIESQIASLSGVDVEDVRKFLDKEWAWVKELLAEHPAELAEVEAARAARLAELRAEVEAKVAA | 0.539 nM |
| A102I (designed binder) MTLQELLREEALRRAEAEAFRYALELLAEKFPEQKEYLLDLAEEIESQIRSLSGVDVEDVRKFLDKEWAWVKELLAEHPAELAEVEAARAARLAELRAEVEIKVAA | 0.956 nM |
| L27G (designed binder) MTLQELLREEALRRAEAEAFRYALELGAEKFPEQKEYLLDLAEEIESQIRSLSGVDVEDVRKFLDKEWAWVKELLAEHPAELAEVEAARAARLAELRAEVEAKVAA | 0.539 nM |
| E29P (designed binder) MTLQELLREEALRRAEAEAFRYALELLAPKFPEQKEYLLDLAEEIESQIRSLSGVDVEDVRKFLDKEWAWVKELLAEHPAELAEVEAARAARLAELRAEVEAKVAA | 0.718 nM |
| R8S (designed binder) MTLQELLSEEALRRAEAEAFRYALELLAEKFPEQKEYLLDLAEEIESQIRSLSGVDVEDVRKFLDKEWAWVKELLAEHPAELAEVEAARAARLAELRAEVEAKVAA | 0.653 nM |
| E77K (designed binder) MTLQELLREEALRRAEAEAFRYALELLAEKFPEQKEYLLDLAEEIESQIRSLSGVDVEDVRKFLDKEWAWVKELLAKHPAELAEVEAARAARLAELRAEVEAKVAA | 0.446 nM |
| P79I (designed binder) MTLQELLREEALRRAEAEAFRYALELLAEKFPEQKEYLLDLAEEIESQIRSLSGVDVEDVRKFLDKEWAWVKELLAEHIAELAEVEAARAARLAELRAEVEAKVAA | 0.653 nM |
| V100A (designed binder) MTLQELLREEALRRAEAEAFRYALELLAEKFPEQKEYLLDLAEEIESQIRSLSGVDVEDVRKFLDKEWAWVKELLAEHPAELAEVEAARAARLAELRAEAEAKVAA | 0.869 nM |

| Binder | apparent Kd (screen) |
| --- | --- |
| K66R (designed binder) MTLQELLREEALRRAEAEAFRYALELLAEKFPEQKEYLLDLAEEIESQIRSLSGVDVEDVRKFLDREWAWVKELLAEHPAELAEVEAARAARLAELRAEVEAKVAA | 0.869 nM |
| A80Y (designed binder) MTLQELLREEALRRAEAEAFRYALELLAEKFPEQKEYLLDLAEEIESQIRSLSGVDVEDVRKFLDKEWAWVKELLAEHPYELAEVEAARAARLAELRAEVEAKVAA | 0.593 nM |
| A15D (designed binder) MTLQELLREEALRRDEAEAFRYALELLAEKFPEQKEYLLDLAEEIESQIRSLSGVDVEDVRKFLDKEWAWVKELLAEHPAELAEVEAARAARLAELRAEVEAKVAA | 0.718 nM |
| A98H (designed binder) MTLQELLREEALRRAEAEAFRYALELLAEKFPEQKEYLLDLAEEIESQIRSLSGVDVEDVRKFLDKEWAWVKELLAEHPAELAEVEAARAARLAELRHEVEAKVAA | 0.593 nM |
| L82G (designed binder) MTLQELLREEALRRAEAEAFRYALELLAEKFPEQKEYLLDLAEEIESQIRSLSGVDVEDVRKFLDKEWAWVKELLAEHPAEGAEVEAARAARLAELRAEVEAKVAA | 1.54 nM |
| E95P (designed binder) MTLQELLREEALRRAEAEAFRYALELLAEKFPEQKEYLLDLAEEIESQIRSLSGVDVEDVRKFLDKEWAWVKELLAEHPAELAEVEAARAARLAPLRAEVEAKVAA | 0.718 nM |
| V60L (designed binder) MTLQELLREEALRRAEAEAFRYALELLAEKFPEQKEYLLDLAEEIESQIRSLSGVDVEDLRKFLDKEWAWVKELLAEHPAELAEVEAARAARLAELRAEVEAKVAA | 0.593 nM |
| V60E (designed binder) MTLQELLREEALRRAEAEAFRYALELLAEKFPEQKEYLLDLAEEIESQIRSLSGVDVEDERKFLDKEWAWVKELLAEHPAELAEVEAARAARLAELRAEVEAKVAA | 4.39 nM |
| A98K (designed binder) MTLQELLREEALRRAEAEAFRYALELLAEKFPEQKEYLLDLAEEIESQIRSLSGVDVEDVRKFLDKEWAWVKELLAEHPAELAEVEAARAARLAELRKEVEAKVAA | 0.446 nM |
| L6I (designed binder) MTLQEILREEALRRAEAEAFRYALELLAEKFPEQKEYLLDLAEEIESQIRSLSGVDVEDVRKFLDKEWAWVKELLAEHPAELAEVEAARAARLAELRAEVEAKVAA | 0.539 nM |
| V104F (designed binder) MTLQELLREEALRRAEAEAFRYALELLAEKFPEQKEYLLDLAEEIESQIRSLSGVDVEDVRKFLDKEWAWVKELLAEHPAELAEVEAARAARLAELRAEVEAKFAA | 0.539 nM |
| A11S (designed binder) MTLQELLREESLRRAEAEAFRYALELLAEKFPEQKEYLLDLAEEIESQIRSLSGVDVEDVRKFLDKEWAWVKELLAEHPAELAEVEAARAARLAELRAEVEAKVAA | 0.956 nM |
| R92H (designed binder) MTLQELLREEALRRAEAEAFRYALELLAEKFPEQKEYLLDLAEEIESQIRSLSGVDVEDVRKFLDKEWAWVKELLAEHPAELAEVEAARAAHLAELRAEVEAKVAA | 0.869 nM |
| E73H (designed binder) MTLQELLREEALRRAEAEAFRYALELLAEKFPEQKEYLLDLAEEIESQIRSLSGVDVEDVRKFLDKEWAWVKHLLAEHPAELAEVEAARAARLAELRAEVEAKVAA | 0.539 nM |
| L41T (designed binder) MTLQELLREEALRRAEAEAFRYALELLAEKFPEQKEYLLDTAEEIESQIRSLSGVDVEDVRKFLDKEWAWVKELLAEHPAELAEVEAARAARLAELRAEVEAKVAA | 0.539 nM |
| A88H (designed binder) MTLQELLREEALRRAEAEAFRYALELLAEKFPEQKEYLLDLAEEIESQIRSLSGVDVEDVRKFLDKEWAWVKELLAEHPAELAEVEAHRAARLAELRAEVEAKVAA | 0.49 nM |
| L27M (designed binder) MTLQELLREEALRRAEAEAFRYALELMAEKFPEQKEYLLDLAEEIESQIRSLSGVDVEDVRKFLDKEWAWVKELLAEHPAELAEVEAARAARLAELRAEVEAKVAA | 0.593 nM |
